Paper PMC11260014 (JTO Clinical and Research Reports, 2024)

Columns and labels:
[1] = Pharmacokinetics from blood samples; assay type: in vivo, human; conditions: serum, in combination with lorlatinib or crizotinib
ALK-positive NSCLC = conditions: monotherapy; phase 2 study, subgroups with prior ALK TKI treatment; cited from earlier work

Compound | Ctrough level at steady state ([1]; at cycle 2) | Cmax on cycle 1 day 1 versus cycle 2 day 1 [1] | Median PFS (ALK-positive NSCLC)
avelumab | above 10 μg/mL | similar | 
C[C@H]1Oc2cc(cnc2N)-c2c(nn(C)c2C#N)CN(C)C(=O)c2ccc(F)cc21 [Lorlatinib, lorlatinib] |  |  | 6.9–7.3 mo
